Assay results taken from US20020146846A1 (published 2002).

Experiments:
[1] = target: T1, epithelial glycoprotein-2 (EGP-2) on EGP-2 overexpressing SW2 cells (human, UniProt P16422 24-314); test: RIA of 99mTc-labelled scFv on SW2 cells, 4 C
T1 construct: whole, on cells; Endogenous antigen of the human SW2 cell line; also called GA733-2; Ep-CAM
T1 sequence (looked up): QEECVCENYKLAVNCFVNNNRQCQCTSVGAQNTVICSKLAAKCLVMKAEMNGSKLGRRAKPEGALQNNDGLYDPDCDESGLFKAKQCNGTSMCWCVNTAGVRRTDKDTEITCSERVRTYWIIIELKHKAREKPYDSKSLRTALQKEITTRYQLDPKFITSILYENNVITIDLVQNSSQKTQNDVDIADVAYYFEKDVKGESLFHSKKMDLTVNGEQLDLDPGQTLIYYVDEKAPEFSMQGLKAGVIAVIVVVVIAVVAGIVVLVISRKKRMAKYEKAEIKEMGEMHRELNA

[2] = target: T2, human epithelial glycoprotein-2, recombinant soluble protein (M1-F259) with a six-histidine C-terminal tag (human, UniProt P16422 24-259); test: SPR (BIAcore), EGP-2 amine-coupled to CM-5 chip, scFv injected, 20 C
T2 construct: range 1-259; The stated range M1-F259 starts at the initiator methionine; also called recombinant soluble EGP-2-antigen; immobilized EGP-2
T2 sequence: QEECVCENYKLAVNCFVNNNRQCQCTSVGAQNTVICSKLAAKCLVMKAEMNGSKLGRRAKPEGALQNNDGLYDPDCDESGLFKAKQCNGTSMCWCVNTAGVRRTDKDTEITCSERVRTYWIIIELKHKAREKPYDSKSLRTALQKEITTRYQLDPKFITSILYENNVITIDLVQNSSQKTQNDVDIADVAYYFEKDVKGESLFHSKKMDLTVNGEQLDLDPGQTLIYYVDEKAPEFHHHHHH

[3] = target: T2, human epithelial glycoprotein-2, …; test: SPR (BIAcore), immobilized EGP-2, low density coating and high flow rate

B1: anti-EGP-2 scFv fragment 4D5MOC-B (scFv)
chain: DIQMTQSPSSLSASVGDRVTITCRSTKSLLHSNGITYLYWYQQKPGKAPKLLIYQMSNLASGVPSRFSSSGSGTDFTLTISSLQPEDFATYYCAQNLEIPRTFGQGTKVELKRTPSHNSHQVPSAGGPTANSGTSGSEVQLVQSGPGLVQPGGSVRISCAASGYTFTNYGMNWVKQAPGKGLEWMGWINTYTGESTYADSFKGRFTFSLDTSASAAYLQINSLRAEDTAVYYCARFAIKGDYWGQGTLLTVSS
Kd [1]: 3.7 nM
Kd [2]: 3.9 nM
koff [2]: 0.000717 s⁻¹
kon [2]: 184000 M⁻¹ s⁻¹

B2: anti-EGP-2 scFv fragment obtained from the murine hybridoma MOC31 (scFv)
chain: DIVMTQSAFSNPVTLGTSASISCRSTKSLLHSNGITYLYWYLQKPGQSPQLLIYQMSNLASGVPDRFSSSGSGTDFTLRISRVEAEDVGVYYCAQNLEIPRTFGGGTKLEIKRTPSHNSHQVPSAGGPTANSGTSGSQVQLQQSGPELKKPGETVKISCKASGYTFTNYGMNWVKQAPGRGLKWMGWINTYTGESTYADDFKGRFAFSLETSASAAYLQINNLKNEDTATYFCARFAIKGDYWGQGTTLTVSS
Kd [1]: 10.8 nM
Kd [2]: 3 nM
koff [2]: 0.0003 s⁻¹
kon [2]: 99000 M⁻¹ s⁻¹
half-life of binding on its target [3]: ~38 min
